Legend:
Lys65 = Lys65 (UniProt position 66, AAGANKVAVIK); settings: Not stated. Ref 16 concerns affinity labelling of bL12 in situ on E. coli 70S ribosomes with a tRNA dialdehyde derivative.; cited from earlier work
[1] = biological target: recombinant E. coli ribosomal protein bL12 (L12), C-terminally His-tagged, as purified: (L7/L12)2 (E. coli) (UniProt P0A7K2); assay: SEC; Superdex 75 column, elution followed at 280 nm and 260 nm, column calibrated with protein markers; apparent molecular weight about 50 kDa; oligomer of 13 kDa chains

| Substance | pKa (Lys65) | stoichiometry N [1] |
| --- | --- | --- |
| 50S ribosomal protein bL12 (L7/L12) (Escherichia coli) | 7.2 | – |
| recombinant E. coli ribosomal protein bL12 (L12), C-terminally His-tagged, as purified: (L7/L12)2 (from UniProt P0A7K2 1-121; P0A7K2 1-121) (natural protein) | – | 4 |
